Measurements published in patent US20250179196A1 (Janssen / Centocor, published 2025).

T1: rat IL-23R extracellular domain (ECD) protein (rat)
T1 construct: also called rat IL-23R ECD; F1LX96 amino acids 24-354
T1 chain: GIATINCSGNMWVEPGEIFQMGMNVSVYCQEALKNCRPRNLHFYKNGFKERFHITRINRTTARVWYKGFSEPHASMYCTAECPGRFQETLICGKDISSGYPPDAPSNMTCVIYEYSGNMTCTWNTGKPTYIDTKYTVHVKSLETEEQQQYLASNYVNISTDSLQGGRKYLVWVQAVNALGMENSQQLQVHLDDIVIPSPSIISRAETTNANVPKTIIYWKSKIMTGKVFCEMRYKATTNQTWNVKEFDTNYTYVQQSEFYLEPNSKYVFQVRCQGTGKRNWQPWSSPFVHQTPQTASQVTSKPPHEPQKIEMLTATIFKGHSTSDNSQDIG

T2: Recombinant human IL-23 receptor (IL-23R) extracellular domain (ECD) protein (human, UniProt Q5VWK5 24-355)
T2 construct: also called human IL-23R ECD; hu IL-23R ECD
T2 sequence: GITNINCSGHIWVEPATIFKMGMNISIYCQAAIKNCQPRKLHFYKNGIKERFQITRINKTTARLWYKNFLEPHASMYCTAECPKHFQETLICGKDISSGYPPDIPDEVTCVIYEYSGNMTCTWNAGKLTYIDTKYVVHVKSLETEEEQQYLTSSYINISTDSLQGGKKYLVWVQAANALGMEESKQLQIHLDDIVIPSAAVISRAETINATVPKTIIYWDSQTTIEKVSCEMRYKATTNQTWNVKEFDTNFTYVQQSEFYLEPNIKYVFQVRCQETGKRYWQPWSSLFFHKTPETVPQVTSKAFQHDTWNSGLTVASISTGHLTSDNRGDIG

B1: I23RB54 (antibody, mouse IgG2a, kappa, V domains shown)
VH: EVQLQQSGGGLVKPGGSLKLSCAASGFTFSSYAMSWVRQTPEKRLEWVAGISSGGSYIYYPDNVKGRFTISRDNARNTLYLQMSSLRSEDTAMYYCARKKSDYGAMDYWGQGTTLTVSS
VL: DIQMTQSPKFLLVSAGDRVTITCKASQSVSNDVAWYQQKPGQSPRLLIYYASNRYTGVPDRFTGSGYGTDFTFTISTVQAEDLAVYFCQQDYSSLPTFGAGTKLEMKR
notes: mouse immunization; mouse IgG2a/kappa
B2: I23RB81 (antibody, mouse IgG2a, kappa, V domains shown)
VH: DVQLQESGPGLVAPSQSLSITCTVSGFSLTSYAINWVRQPPGKGLEWLGVIWTGGGTNYNSALKSRLSISKDNSKSQLFLKMNSLQTDDTARYYCARNRDYSNYRWYFDVWGAGTSVTVSS
VL: DIVMTQSHKFMSTSVGDRVSIICKASQDVSTAVAWYQQKPGQSPKLLIYSASYRYTGVPDRFTGSGSGTDFTFTISSVQAEDLAVYYCQQHYSTPLTFGAGTRLEIKR
notes: as for B1
B3: I23RB67 (antibody, mouse IgG2a, kappa, V domains shown)
VH: EVQLQQSGAELVKPGASVKLSCKASGYTFTSYWINWVKQRPGQGLEWIGNIYPGSSSTNYNEKFKSKATLTVDTSSSTAYMQLSSLTSDDSAVYYCARSAYGNRLAMDYWGQGTTLTVSS
VL: DVVMTQSHKFMSTSVGDRVSITCKASQDVSTAVAWYQQKPGQSPKLLIYSAFYRYTGVPDRFTGSGSGTDFTFTISSVQAEDLAVYYCQQHYSTPYTFGGGTKLELKR
notes: as for B1
B4: I23RB318 (antibody, mouse IgG2a, kappa, V domains shown)
VH: QVQLVQSGAEVKKPGSSVKVSCKASGGTFSSYAISWVRQAPGQGLEWMGGIIPIFGTANYAQKFQGRVTITADESTSTAYMELSSLRSEDTAVYYCARVRARHRGSFDYWGQGTLVTVSS
VL: DIQMTQSPSSLSASVGDRVTITCRASQSIDRWLNWYQQKPGKAPKLLIYYASSLQSGVPSRFSGSGSGTDFTLTISSLQPEDFATYYCQQSYSTPLTFGQGTKVEIKR
notes: phage display; human V regions, mouse IgG2a/kappa constant regions
B5: I23RB313 (antibody, mouse IgG2a, kappa, V domains shown)
VH: QVQLVQSGAEVKKPGSSVKVSCKASGGTFSSYGISWVRQAPGQGLEWMGWISAIFGTTNYAQKFQGRVTITADESTSTAYMELSSLRSEDTAVYYCARGTVPGFDYWGQGTLVTVSS
VL: DIQMTQSPSSLSASVGDRVTITCRASQSIGEDLNWYQQKPGKAPKLLIYAASSLQSGVPSRFSGSGSGTDFTLTISSLQPEDFATYYCQQSYSTPLTFGQGTKVEIKR
notes: as for B4
B6: I23RB269 (antibody, mouse IgG2a, kappa, V domains shown)
VH: QVQLVQSGAEVKKPGSSVKVSCKASGGTFSDASISWVRQAPGQGLEWMGTIIPISGNANYAQKFQGRVTITADESTSTAYMELSSLRSEDTAVYYCARDRYVWYYWDGYFDYWGQGTLVTVSS
VL: not shown
notes: as for B4
B7: I23RB80 (antibody, mouse IgG2a, kappa, V domains shown)
VH: DVQLQESGPGLVQPSQSLSITCTVSGFSLTSYGVHWVRQSPGKGLEWLGVIWSGVSTDYNAAFISRLSISKDNSKSQVFFKMNSLQADDTAIYYCARSRGSYYFDYWGQGTTLTVSS
VL: DIVMTQSQKFMSTSEGDRVNITCKASQNIRTAVAWYQQKPGQSPKPLIYLASNRHTGVPDRFTGSGSGTDFTLTISNVQSEDLAEYFCLQHWNYPLTFGAGTKLELKR
notes: as for B1
B8: I23RB267 (antibody, mouse IgG2a, kappa, V domains shown)
VH: EVQLVQSGAEVKKPGESLKISCKGSGYSFTSYWIGWVRQMPGKGLEWMGIIYPGDSDTRYSPSFQGQVTISADKSISTAYLQWSSLKASDTAMYYCARVWYSSWDLDYWGQGTLVTVSS
VL: not shown
notes: as for B4
B9: I23RB102 (antibody, mouse IgG2a, kappa, V domains shown)
VH: QVQLQQPGAELVKPGASVKVSCKASGYTFTKYWINWMNQRPGQGLEWIGNIYPGSISTNYNEKFKSKVTLTVDISSSTAYMQLSSLTSDDSAVYYCARGDFYALDYWGQGTTLTVSS
VL: DIQMTQSPASLSVSVGETVTITCRASENIYSHITWYQLKQGKSPQLLVYASTNLADDVPSRFSGSGSGTQYSLKINSLLSEDFGTYYCQHFWGTPWTFGGGTKLEMKR
notes: as for B1
B10: I23RB74 (antibody, mouse IgG2a, kappa, V domains shown)
VH: DVQLQESGPGLVKPSQSLSLTCSVTGYSITSGYYWNWIRQFPGNKLEWMGYISYDGSFNYNPSLKNRLSITRDTSMNQFFLKLNSVTSEDTATYYCARAEIYYDYDGDFDYWGQGTTLTVSS
VL: DIVLTQSPASLAVSLGQRATISCRASKSVSTSGSNFLHWYQQKPGQPPKLLIYFASNLESGVPARFSGSGSGTDFTLNIHPVEEEDAATYYCQHSRELPHTFGAGTKLELKR
notes: as for B1
B11: I23RB87 (antibody, mouse IgG2a, kappa, V domains shown)
VH: EFQLQQSGPELVKPGTSVKMSCKASGYTFTNYVMHWVKQKPGQGLEWIGYINPYDASPKYNEKFKGKAILTSDKSSSTAYMELSSLTSEDSAVYYCTRDAKLDYFDYWGQGTTLTVSS
VL: DIVMTQTTSSLSASLGDRVTISCRASQDISNYLNWYQQKPDGTVKLLIYYTSRLHSGVPSRFSGSGSGTDFSLTISNLEQEDIATYFCQQGITLPWTFGAGTKLELKR
notes: as for B1
B12: I23RB270 (antibody, mouse IgG2a, kappa, V domains shown)
VH: QVQLVQSGAEVKKPGSSVKVSCKASGGTFDSYAISWVRQAPGQGLEWMGGIIPISGYANYAQKFQGRVTITADESTSTAYMELSSLRSEDTAVYYCARDLSGGYLGLRTLYYYYFDYWGQGTLVTVSS
VL: EIVLTQSPATLSLSPGERATLSCRASQSVSSYLAWYQQKPGQAPRLLIYDASNRATGIPARFSGSGSGTDFTLTISSLEPEDFAVYYCQQRSNWPLTFGQGTKVEIKR
notes: as for B4
B13: I23RB268 (antibody, mouse IgG2a, kappa, V domains shown)
VH: QVQLVQSGAEVKKPGSSVKVSCKASGGTFSSYYIHWVRQAPGQGLEWMGGIIPIFGYANYAQKFQGRVTITADESTSTAYMELSSLRSEDTAVYYCARDPGSYGSVYYRRSYYFDYWGQGTLVTVSS
VL: EIVLTQSPATLSLSPGERATLSCRASQSVSSYLAWYQQKPGQAPRLLIYDASNRATGIPARFSGSGSGTDFTLTISSLEPEDFAVYYCQQRSNWPLTFGQGTKVEIKR
notes: as for B4
B14: I23RB78 (antibody, mouse IgG2a, kappa, V domains shown)
VH: EFQLQQSGGGLVKPGGSLKLSCAASGFTFSNYTMSWVRQTPEKRLKWVACISSGGGNTYYPDSVKGRFTISRDNARNTLYLQMSSLRSEDTAMYYCARRNYRRAMDYWGQGTSVTVSS
VL: DIVMTQSPASLAVSLGQRATISCRASESVDSYGISFMHWYQQKPGQPPKLLIYRASNLESGIPARFSGSGSRTDFTLTINPVEADDVATYYCQQSNEDPWTFGAGTGLEIKR
notes: as for B1

How the values were obtained:
[1] = target: T1, rat IL-23R extracellular domain (ECD) …; assay: SPR Biacore 8K, supernatant
Procedure: (§1) Affinity by SPR using Biacore 8K. Affinity measurements using Surface Plasmon Resonance (SPR) were performed using a Biacore 8K system (Cytiva). […] Approximately 9000-10000 RU (response units) of mAbs were immobilized. The kinetic experiments were performed at 25° C. in running buffer 1× of (HBS-P+ Buffer 10× (Cytiva #BR100671)+100 μg/ml BSA). To perform kinetic experiments, approximately 150 RU of mAbs were captured followed by injections of human IL-23R or rat IL-23R at concentrations ranging from 0.8 nM to 500 nM (in a 5-fold serial dilution). The association phase was monitored for 3 minutes at 50 μL/min, then followed by 30 minutes of buffer flow (dissociation phase). […] The collected data were processed using Biacore insight Evaluation software (Version 3.0.12.15655). The kinetic analysis of the data was performed using a Langmuir 1:1 binding model. The result for each mAb was reported in the format of Ka (On-rate), Kd (Off-rate) and KD (equilibrium dissociation constant).

[2] = target: T2, Recombinant human IL-23 receptor …; assay: SPR Biacore 8K, supernatant, analysis 2
Procedure: as §1

[3] = target: T2, Recombinant human IL-23 receptor …; assay: SPR Biacore 8K, supernatant, analysis 1
Procedure: as §1

Row | Binder | binding result [1] | Kd [2] [nM] | koff [2] [s⁻¹] | kon [2] [M⁻¹ s⁻¹] | Kd [3] [nM] | koff [3] [s⁻¹] | kon [3] [M⁻¹ s⁻¹]
1 | B1 | no binding (tested: 500 nM) | 183 | 0.0979 | 534000 | – | – | –
2 | B2 | no binding (tested: 500 nM) | 8.89 | 0.00173 | 195000 | – | – | –
3 | B3 | no binding (tested: 500 nM) | 25.4 | 0.0172 | 677000 | – | – | –
4 | B4 | no binding (tested: 500 nM) | 21.4 | 0.00156 | 72900 | 21.3 | 0.00167 | 78400
5 | B5 | no binding (tested: 500 nM) | 4.85 | 0.000108 | 22300 | < 4.98 | < 2.89e-05 | 5800
6 | B6 | no binding (tested: 500 nM) | 1.41 | 0.000542 | 385000 | 1.09 | 0.000514 | 473000
7 | B7 | no binding (tested: 500 nM) | – | – | – | – | – | –
8 | B8 | no binding (tested: 500 nM) | 7.56 | 0.000178 | 23500 | 18.1 | 0.000196 | 10800
9 | B9 | no binding (tested: 500 nM) | 18.5 | 0.00873 | 471000 | – | – | –
10 | B10 | no binding (tested: 500 nM) | 2.33 | 0.00222 | 954000 | – | – | –
11 | B11 | no binding (tested: 500 nM) | 10.9 | 0.000945 | 86500 | – | – | –
12 | B12 | no binding (tested: 500 nM) | 2.46 | 0.00101 | 409000 | 1.91 | 0.00102 | 535000
13 | B13 | no binding (tested: 500 nM) | 18.9 | 0.000308 | 16300 | 12 | 0.000273 | 22800
14 | B14 | no binding (tested: 500 nM) | 4.33 | 0.000774 | 179000 | – | – | –
